Test results: patent US20040037843A1 (published 2004)
Read-outs that look alike come from different tables or passages of the source. Blank lines part the entries; values can stand above or below the binder they belong to.

Legend:
HLA-A*0201 [1] = biological target: HLA-A*0201 (human)
HLA-A*0201 [2] = biological target: HLA-A*0201 (human); experiment: inhibition of 125I probe peptide binding to purified HLA
HLA-A*0203 [3] = biological target: HLA-A*0203 (human); experiment: as above
HLA-A*0206 [4] = biological target: HLA-A*0206 (human); experiment: as above
HLA-A*0202 [5] = biological target: HLA-A*0202 (human); experiment: competition with 125I-labelled standard peptide for purified HLA
HLA-A*6802 [6] = biological target: HLA-A*6802 (human); experiment: inhibition of 125I probe peptide binding to purified HLA
HLA-A*0201 [7] = biological target: HLA-A*0201 (human); remark: listed apart in the source
HLA-A*0202 [8] = biological target: HLA-A*0202 (human); experiment: inhibition of 125I probe peptide binding to purified HLA, gel filtration
HLA-A*0206 [9] = biological target: HLA-A*0206 (human)
HLA-A*0202 [10] = biological target: HLA-A*0202 (human)
HLA-A*0203 [11] = biological target: HLA-A*0203 (human)
HLA-A*0203 [12] = biological target: HLA-A*0203 (human); experiment: competition with 125I probe peptide on purified HLA, gel filtration
HLA-A*0203 [13] = biological target: HLA-A*0203 (human); experiment: competition with 125I-labeled probe peptide for purified HLA, gel filtration
HLA-A*0206 [14] = biological target: HLA-A*0206 (human); experiment: as above
HLA-A*0201 [15] = biological target: HLA-A*0201 (human); experiment: as above
HLA-A*6802 [16] = biological target: HLA-A*6802 (human); experiment: as above

IC50 (HLA-A*0202 [5]): 3 nM
Binder: FLTLSVTWIGV [peptide 1419.27, PSA.3.V11]

IC50 (HLA-A*6802 [6]): 364 nM
IC50 (HLA-A*0203 [3]): 2.8 nM
Binder: FLLFFWLDRSV [Peptide 63.0138 FLLFFWLDRSV (PAP.20)]

IC50 (HLA-A*0201 [7]): 56 nM
Binder: KVTEFMLCAGV [peptide 1418.71, HuK2.191.V11]

IC50 (HLA-A*0202 [8]): 3 nM
Binder: FLTLSVTWIGV [Peptide 63.0186 (PSA.3.V11)]

IC50 (HLA-A*0206 [9]): 5.2 nM
IC50 (HLA-A*0202 [10]): 6.3 nM
IC50 (HLA-A*0203 [11]): 2.8 nM
Binder: SLQCVSLHLV [peptide 1418.52 (HuK2.170.V10)]

IC50 (HLA-A*0203 [13]): 44 nM
IC50 (HLA-A*0206 [14]): 82 nM
IC50 (HLA-A*0201 [15]): 238 nM
IC50 (HLA-A*6802 [16]): 258 nM
Binder: ATFDIESKV [Peptide 1418.30]

IC50 (HLA-A*0206 [9]): 206 nM
IC50 (HLA-A*0203 [11]): 40 nM
Binder: ITLSVGCTGAV [peptide 1418.59 (HuK2.8.T2)]

The remaining lines, values behind:

Binder: MLLRLSEPAEL [PSA.118 (11-mer MLLRLSEPAEL)]
IC50 (HLA-A*0201 [1]): ≤ 200 nM

Binder: LLLARAASLSL [Peptide 63.0136 LLLARAASLSL (PAP.6)]
IC50 (HLA-A*0201 [2]): 8.1 nM
IC50 (HLA-A*0203 [3]): 5.3 nM
IC50 (HLA-A*0206 [4]): 80 nM

Binder: LLHETDSAV [PSM.4]
IC50 (HLA-A*0201 [1]): > 200 nM

Binder: MMNDQLMFL [PSM.663]
IC50 (HLA-A*0201 [1]): ≤ 200 nM

Binder: LLLARAASLSL [PAP.6]
IC50 (HLA-A*0201 [1]): ≤ 200 nM

Binder: TLMSAMTNL [PAP.112]
IC50 (HLA-A*0201 [1]): ≤ 200 nM

Binder: TVSGLQMAV [Peptide 60.0213 TVSGLQMAV (PAP.292.V9)]
IC50 (HLA-A*0203 [12]): 122 nM

Binder: GLLGSTEWA [PSM.427]
IC50 (HLA-A*0201 [1]): > 200 nM

Binder: ALVLAGGFFL [PSM.25]
IC50 (HLA-A*0201 [1]): > 200 nM

Binder: LMYSLVHNL [PSM.469]
IC50 (HLA-A*0201 [1]): ≤ 200 nM

Binder: KLGSGNDFEV [PSM.514]
IC50 (HLA-A*0201 [1]): > 200 nM
